How the values were obtained:
[1] = target: PP1α (7–330) (UniProt P62136)
[2] = target: native catalytic subunit of PP1 from rabbit skeletal muscle (PP1^N) (rabbit) (UniProt P62139)
UniProt P62139, sequence (P62139 whole entry): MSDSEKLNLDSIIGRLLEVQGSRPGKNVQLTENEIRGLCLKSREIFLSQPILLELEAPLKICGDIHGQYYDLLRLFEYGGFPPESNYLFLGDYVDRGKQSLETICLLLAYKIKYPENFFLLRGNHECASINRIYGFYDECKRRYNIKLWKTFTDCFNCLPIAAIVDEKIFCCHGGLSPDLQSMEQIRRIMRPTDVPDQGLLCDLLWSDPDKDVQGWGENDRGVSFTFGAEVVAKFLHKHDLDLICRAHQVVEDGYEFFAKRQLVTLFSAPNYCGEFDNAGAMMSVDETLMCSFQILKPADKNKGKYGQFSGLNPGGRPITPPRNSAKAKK

MBP-PPP1R15A^325–636, sequence (O75807 325-636): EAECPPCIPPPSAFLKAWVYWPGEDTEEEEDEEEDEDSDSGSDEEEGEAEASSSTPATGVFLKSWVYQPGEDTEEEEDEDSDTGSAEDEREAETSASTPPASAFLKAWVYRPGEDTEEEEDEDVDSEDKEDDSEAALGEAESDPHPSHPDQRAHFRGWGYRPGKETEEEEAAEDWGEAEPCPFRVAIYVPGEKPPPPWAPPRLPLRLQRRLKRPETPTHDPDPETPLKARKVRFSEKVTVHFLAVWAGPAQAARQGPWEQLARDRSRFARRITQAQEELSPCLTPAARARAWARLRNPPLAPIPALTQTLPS
PPP1R15A^325–636-MBP, sequence (O75807 325-636): as above
UniProt P62136, sequence (P62136 7-330): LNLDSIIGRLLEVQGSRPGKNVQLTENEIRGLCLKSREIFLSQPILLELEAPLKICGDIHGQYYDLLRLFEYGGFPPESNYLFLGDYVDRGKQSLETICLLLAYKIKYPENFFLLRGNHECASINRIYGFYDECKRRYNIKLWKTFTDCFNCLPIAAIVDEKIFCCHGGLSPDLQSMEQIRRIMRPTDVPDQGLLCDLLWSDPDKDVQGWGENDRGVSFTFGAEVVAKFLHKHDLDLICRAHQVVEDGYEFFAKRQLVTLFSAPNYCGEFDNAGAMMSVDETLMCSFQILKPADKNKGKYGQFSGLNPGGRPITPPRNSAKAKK

Substance	EC50 of the stimulation of eIF2α^P (2 μM) dephosphorylation by PP1α (24 nM) with G-actin (400 nM), MBP-PPP1R15A^325–636 0–100 nM, 20 min at 30 °C [1] [nM]	EC50 of the stimulation of eIF2α^P (2 μM) dephosphorylation by PP1^N (20 nM) with G-actin (400 nM), PPP1R15A^325–636-MBP 0–100 nM, 30 min at 30 °C [2] [nM]
MBP-PPP1R15A^325–636 (from UniProt O75807 325-636) (domain or fragment)	6	
PPP1R15A^325–636-MBP (from UniProt O75807 325-636) (domain or fragment)		58

From article PMC5961032
